Measured values taken from US12391919B2, “Culture medium, coating matrix and method for maturing midbrain dopaminergic progenitor cells” (NUWACELL BIOTECHNOLOGIES CO., LTD., priority 2022, dated 2025).

Test system: imDAPs
Assay: imDAP maturation: cell morphology, adhesion and cell yield
Format: cell-based, human
Conditions: Example 13; maturation media supplemented with 10 μM Y27632; day 7; FIG. 8A
Procedure: imDAPs were produced according to the method described in CN201910169525.0, and expanded as described in Example 10. […] MM-H used in Example 11 contained the following components: Neurobasal™ medium, 1% (v/v) Glutamax, 0.5 mM Db-cAMP sodium salt, 200 μM ascorbic acid, 20 ng/ml BDNF, 20 ng/ml GDNF, 1 ng/ml TGF-β3, 10 μM DAPT, HhPLT (0.5%, 1%, 2%). MM-B used in Example 11 contained the following components: Neurobasal, 1% (v/v) Glutamax, 0.5 mM Db-cAMP sodium salt, 200 μM ascorbic acid, 20 ng/ml BDNF, 20 ng/ml GDNF, 1 ng/ml TGF-β3, 10 μM DAPT, 2% (v/v) B27 (50×) (as control). The above HhPLT was produced from hPLT as follows. The hPLT was centrifuged at 3000 g for 30 min at 4° C. to obtain the supernatant, which was heated to 56° C. for 30 min. The suspension was finally cooled down to 4° C. at least 5 min, and spun at 3000 g for 30 min at 4° C. to obtain the HhPLT supernatant. Aliquots were prepared and stored at −80° C. until use. The above Medium was changed every 3rd day. On day 7, the imDAPs at early maturation stage were dissociated enzymatically with 1× TrypLE, centrifuged at 250 g for 5 minutes.
imDAPs were produced according to the method described in CN201910169525.0, and expanded as described in Example 10. […] Medium was changed every 3rd day. On day 7, the imDAPs at early maturation stage were dissociated enzymatically with 1× TrypLE, centrifuged at 250 g for 5 minutes. Cells were collected for RT-qPCR analysis of EN1, LMX1A, FOXA2, NURR1, SOX6 and TH gene expression. The maturation medium used in Example 12 contained the following components: Neurobasal™ medium, 1% (v/v) Glutamax, 1% (v/v) HhPLT, 0.5 mM Db-cAMP sodium salt, 200 μM ascorbic acid, 20 ng/mL BDNF, 20 ng/mL GDNF, 1 ng/mL TGF-β3, 10 μM DAPT.
imDAPs were produced according to the method described in CN201910169525.0, and expanded as described in Example 10. […] Cells were collected and counted by Vi-cell cytometer. The cells were analyzed by RT-qPCR for EN1, LMX1A, FOXA2, NURR1, SOX6 and TH gene expression. […]

B1: VTN: vitronectin, first coating matrix that supports cell adhesion (protein, UniProt P04004 20-478, looked up)
Vitronectin: DQESCKGRCTEGFNVDKKCQCDELCSYYQSCCTDYTAECKPQVTRGDVFTMPEDEYTVYDDGEEKNNATVHEQVGGPSLTSDLQAQSKGNPEQTPVLKPEEEAPAPEVGASKPEGIDSRPETLHPGRPQPPAEEELCSGKPFDAFTDLKNGSLFAFRGQYCYELDEKAVRPGYPKLIRDVWGIEGPIDAAFTRINCQGKTYLFKGSQYWRFEDGVLDPDYPRNISDGFDGIPDNVDAALALPAHSYSGRERVYFFKGKQYWEYQFQHQPSQEECEGSSLSAVFEHFAMMQRDSWEDIFELLFWGRTSAGTRQPQFISRDWHGVPGQVDAAMAGRIYISGMAPRPSLAKKQRFRHRNRKGYRSQRGHSRGRNQNSRRPSRATWLSLFSSEESNLGANNYDDYRMDWLVPATCEPIQSVFFFSGDKYYRVNLRTRRVDTVDPPYPRSIAQYWLGCPAPGHL
cell adhesion and growth: could grow normally
